Data: IntAct's records for PubMed 10764785

Target: rpod_ecoli rpoD (UniProt P00579)
Sequence (P00579 whole entry): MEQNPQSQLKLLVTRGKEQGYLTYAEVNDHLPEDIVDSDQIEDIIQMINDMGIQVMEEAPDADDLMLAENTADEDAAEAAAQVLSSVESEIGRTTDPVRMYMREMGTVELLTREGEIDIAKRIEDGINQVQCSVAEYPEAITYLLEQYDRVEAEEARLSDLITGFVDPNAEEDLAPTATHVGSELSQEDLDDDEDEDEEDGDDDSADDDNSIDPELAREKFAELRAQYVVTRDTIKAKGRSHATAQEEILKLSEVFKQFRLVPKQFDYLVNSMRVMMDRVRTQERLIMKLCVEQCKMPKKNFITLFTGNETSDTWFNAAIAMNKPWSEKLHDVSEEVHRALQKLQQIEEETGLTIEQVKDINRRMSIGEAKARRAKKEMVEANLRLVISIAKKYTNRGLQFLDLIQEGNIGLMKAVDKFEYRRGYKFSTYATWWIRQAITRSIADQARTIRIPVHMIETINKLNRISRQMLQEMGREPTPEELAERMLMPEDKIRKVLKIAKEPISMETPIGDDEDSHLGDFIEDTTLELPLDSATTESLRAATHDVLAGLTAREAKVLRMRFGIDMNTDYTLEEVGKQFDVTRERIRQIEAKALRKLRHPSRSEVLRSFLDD

effect of a mutation on the interaction | Substance
decreasing interaction | DNA-directed RNA polymerase subunit beta' (Escherichia coli (strain K12)) (from UniProt P0A8T7) A302D
decreasing interaction | DNA-directed RNA polymerase subunit beta' (Escherichia coli (strain K12)) (from UniProt P0A8T7) E295K
decreasing interaction | DNA-directed RNA polymerase subunit beta' (Escherichia coli (strain K12)) (from UniProt P0A8T7) R293Q
decreasing interaction | DNA-directed RNA polymerase subunit beta' (Escherichia coli (strain K12)) (from UniProt P0A8T7) R297S
increasing interaction | DNA-directed RNA polymerase subunit beta' (Escherichia coli (strain K12)) (from UniProt P0A8T7) N309D
decreasing interaction | DNA-directed RNA polymerase subunit beta' (Escherichia coli (strain K12)) (from UniProt P0A8T7) R275Q
increasing interaction | DNA-directed RNA polymerase subunit beta' (Escherichia coli (strain K12)) (from UniProt P0A8T7) Q300E
